Columns and labels:
[1] = molecular target: Xenopus laevis Bonsai CENP-E (Xenopus laevis); assay: single-molecule fluorescence brightness and photobleaching steps
[2] = molecular target: microtubules (tubulin purified from cow brains) (cow) (UniProt Q6B856); assay: co-sedimentation

| stoichiometry N [1] | Kd [2] | Substance |
| --- | --- | --- |
| 2 |  | Xenopus laevis Bonsai CENP-E |
|  | 24 nM | Xenopus laevis full-length CENP-E (natural protein) |

— article PMC4116301
